Source: USRE38202

What was measured:
[1] = target: intact human Factor IX (human) (UniProt P00740); test: cell-based or functional assay
Factor IXα (human) = Factor IXα (human) (UniProt P00740); test: ELISA affinity determination (Kim et al.)
[2] = target: intact human Factor IX (human) (UniProt P00740); test: ELISA affinity determination (Kim et al.)
Factor II [3] = target: Factor II (UniProt P00734); test: affinity chromatography on CLB-FIX D4-Sepharose; 73 ml
Factor X [4] = target: Factor X (UniProt P00742); test: as above
Factor II [5] = target: Factor II (UniProt P00734); test: affinity chromatography on CLB-FIX D4-Sepharose; 440 ml
Factor X [6] = target: Factor X (UniProt P00742); test: as above
Factor IXaβ (human) [7] = target: Factor IXaβ (human) (UniProt P00740); test: CLB-FIX D4 affinity chromatography, Factor IXα mixture applied
[8] = target: intact human Factor IX (human) (UniProt P00740); test: as above
[9] = target: intact human Factor IX (human) (UniProt P00740); test: CLB-FIX D4 affinity chromatography, purified Factor IX applied
Factor IXaβ (human) [10] = target: Factor IXaβ (human) (UniProt P00740); test: CLB-FIX D4 affinity chromatography, Factor IXaβ mixture applied
[11] = target: intact human Factor IX (human) (UniProt P00740); test: as above
[12] = target: intact human Factor IX (human) (UniProt P00740); test: affinity chromatography on CLB-FIX D4-Sepharose, clotting activity; 73 ml
[13] = target: intact human Factor IX (human) (UniProt P00740); test: affinity chromatography on CLB-FIX D4-Sepharose, clotting activity; 440 ml
[14] = target: intact human Factor IX (human) (UniProt P00740); test: affinity chromatography of prothrombin complex concentrate, elution with 2 M KSCN

Sequence of UniProt P00742 (P00742 41-488 limits assumed): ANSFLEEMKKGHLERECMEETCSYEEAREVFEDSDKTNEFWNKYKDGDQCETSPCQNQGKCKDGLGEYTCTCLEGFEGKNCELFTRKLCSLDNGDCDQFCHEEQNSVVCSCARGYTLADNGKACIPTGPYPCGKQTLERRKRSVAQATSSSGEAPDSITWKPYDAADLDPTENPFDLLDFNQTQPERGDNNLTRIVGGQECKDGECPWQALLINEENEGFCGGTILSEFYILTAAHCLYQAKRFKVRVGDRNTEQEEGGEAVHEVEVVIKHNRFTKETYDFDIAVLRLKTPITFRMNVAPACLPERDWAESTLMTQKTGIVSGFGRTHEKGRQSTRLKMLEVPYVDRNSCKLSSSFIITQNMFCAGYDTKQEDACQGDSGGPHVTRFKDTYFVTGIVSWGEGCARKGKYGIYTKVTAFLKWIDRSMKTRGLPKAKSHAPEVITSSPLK

## monoclonal antibody CLB-FIX D4
[1]
  Factor IX clotting activity (one stage coagulation assay), residual activity after incubation with antibody: > 90%
Factor IXα (human)
  Kd: 0.3 nM
  fold alteration of affinity (Factor IXα against intact Factor IX): > 4 fold
[2]
  Kd: 1.2 nM
Factor II [3]
  FII in eluate (U/ml): < 0.008 U/ml
Factor X [4]
  FX in eluate (U/ml): < 0.003 U/ml
Factor II [5]
  FII in flow through (U/ml): 49.7 U/ml
Factor X [6]
  FX in flow through (U/ml): 51 U/ml
Factor IXaβ (human) [7]
  FIXaβ eluted: < 0.001 µg
  FIXaβ unbound: 7 µg
[8]
  Intact FIX eluted: 85 µg
[9]
  Intact FIX eluted: 588 µg
  Intact FIX unbound: 23 µg
  Protein eluted: 580 µg
  Protein unbound: 20 µg
Factor IXaβ (human) [10]
  FIXaβ eluted: < 0.001 µg
  FIXaβ unbound: 550 µg
[11]
  Intact FIX eluted: 50 µg
[12]
  FIX in eluate (U/ml): 98.7 U/ml
[13]
  FIX in flow through (U/ml): 10.4 U/ml
[14]
  Factor IX activity recovered in the eluate: 67%
